Assay results taken from patent US20250340623A1 (AC IMMUNE, published 2025).

B1: ACI-7089-4415G5-Ab1 (antibody, V domains shown)
VH: QVQLQQSGAELARPGASVKVSCKASGYTFTSSGISWLKHRTGQGLEWIGDIYPRSGNTYYNEKFKDKATLTADKSSSTAYMELRSLTSEDSAVYFCASGNYWGQGTTLTVSA
VL: DIVITQDDLSNPVTSGESVSISCRSSKSLLYKDGKTYLNWFLQRPGQSPQLLIYLMSTRASGVSDRFSGSGSGTDFTLEISRVKAEDVGVYYCQQLLEYPLTFGAGTKLELK
notes: mouse hybridoma mAb; VH/VL only; also called 4415G5A11
B2: ACI-8033-6403E11-Ab2 (antibody, V domains shown)
VH: DVQLQESGPGLVKPSQSLSLTCSVTGYSITSAYYWNWIRQFPGNKLEWMGYISYDGSNNYIPSLKNRISISRDTSKNQFFLKLNSVTTEDTATYYCIRGDVNWGQGTTLTVSS
VL: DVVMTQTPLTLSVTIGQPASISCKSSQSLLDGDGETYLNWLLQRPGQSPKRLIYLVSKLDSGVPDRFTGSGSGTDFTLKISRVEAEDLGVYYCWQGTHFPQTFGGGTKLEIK
notes: mouse hybridoma mAb; VH/VL only; also called 6403E11B4
B3: ACI-8033-6402E10-Ab1 (antibody, V domains shown)
VH: DVQLQESGPGLVKPVQSLSLTCSVTGYSITSGYYWNWIRQFPGNKLEWMGYISSDGSNNYNPSLKNRISISRDTSKNQFFLKLDSVTTEDTATYYCVRADNYWGQGTTLTVSS
VL: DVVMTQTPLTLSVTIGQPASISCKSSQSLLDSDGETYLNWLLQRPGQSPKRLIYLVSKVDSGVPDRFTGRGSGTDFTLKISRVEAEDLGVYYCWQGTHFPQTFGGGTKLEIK
notes: mouse hybridoma mAb; VH/VL only; also called 6402E10B3
B4: ACI-7089-4418C5-Ab1 (antibody, V domains shown)
VH: DGQLQESGPGLVKPSQSLSLTCSVTGYSITSGYYWNWIRQFPGNKLEWMGYINYDGSNNYNPSLKNRISITRDTSKNQFFLKFNFVTTEDTATYYCVRGDVYWGQGTTLTVSS
VL: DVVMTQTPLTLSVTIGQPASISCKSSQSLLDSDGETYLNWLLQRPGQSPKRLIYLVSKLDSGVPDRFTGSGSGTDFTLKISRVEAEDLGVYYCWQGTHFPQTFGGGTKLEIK
notes: mouse hybridoma mAb; VH/VL only; also called 4418C5G1
B5: ACI-7088-4301E12-Ab2 (antibody, V domains shown)
VH: DVQLQESGPGLVKPSQSLSLTCSVTGYSITSGYYWNWIRQFPGNKLEWMGYISDDGSKNYNPSLKNRISITRDTSKNQLFMKLNSVTTEDTATYYCARGDSRLGQGTLVTVSA
VL: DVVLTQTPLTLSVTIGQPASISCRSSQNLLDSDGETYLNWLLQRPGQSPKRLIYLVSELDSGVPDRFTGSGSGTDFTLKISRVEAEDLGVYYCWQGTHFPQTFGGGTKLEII
notes: mouse hybridoma mAb; VH/VL only; also called 4301E12B9
B6: ACI-7087-4119E10-Ab2 (antibody, V domains shown)
VH: QVQLQQSGAELVRPGASVTLSCKASGYTFSDYEMNWVKQTPVHGLEWIGAIDPETGGTAYNQKFKGKAILTSDKSSSTAYMELRSLTSEDSAVYYCTRFLLIDFDYWGQGTTLTVSS
VL: DVLMTQTPLSLPVSLGDQASISCRSSQSIVHSNGNTYLEWYLKKAGQSPKVLIYKVSNRFSGVPDRFSGSGSGTDFTLKISRVEAEDLGVYYCFQGSHVPYTFGGGTELEIK
notes: mouse hybridoma mAb; VH/VL only; also called 4119E10D12
B7: ACI-7079-3101E3-Ab1 (antibody, V domains shown)
VH: QVQLKESGPGLVAPSQSLSITCTVSGFSLTRYIINWVRQPPGKGLEWLGVIWTGGGTDYNSALKSRLSISKDNSKSQVFLKMNSLQTDDTARYYCAREYGYDGAWFAYWGQGTLVTVSA
VL: DVLMTQTPLSLPVSLGDQASISCRSSQTIVHSNGNTYLEWYLQKPGQSPKLLIYKVSNRFSGVPDRFSGSGSGTDFTLKISRVEAEDLGVYYCFQGSHVPYTFGGGTKLEIK
notes: mouse hybridoma mAb; VH/VL only; also called 3101E3C9
B8: ACI-7079-3103G12-Ab2 (antibody, V domains shown)
VH: DVQLQESGPGMVKPSQSLSLTCTVTGYSITSGYDWHWIRHFPGNKLEWMGYITYSGSTNYNPSLKSRISITHDTSKNHFFLKLTSVTTEDTATYYCARDTVDAWFAYWGQGTLVTVSA
VL: DVLMTQAPLSLPVSLGDQASISCRSSQSIVHSNGDTYLEWYLQKPGQSPKLLIYKVSNRFSGVPDRFSGSGSGTDFTLKISRVEAEDLGVYYCFQGSHVPPTFGGGTKLEIK
notes: mouse hybridoma mAb; VH/VL only; also called 3103G12D2B10
B9: ACI-8033-21C8-Ab1 (antibody, V domains shown)
VH: QVQLQQPGAELVKPGASVKMSCKASGYTFTSYWITWVRQRPGQGLDWIGDIYPGGGVTNYNEKFKTKATLTVDTSSSTAYMHLSSLTSEDSAVYFCATAQTTFAYWGQGTLVTVSA
VL: DVLMTQTPLSLPVSLGDQASISCRSSQNIVHNNGNTYLEWYLQKPGQSPKLLIYKVSNRFSGVPDRFSGSGSGTDFTLKISRVEAEDLGVYYCFQGSHVPRTFGGGTKLEIK
notes: mouse hybridoma mAb; VH/VL only; also called 917.21C8E4C8

Key:
[1] = molecular target: monomeric alpha-synuclein (UniProt P37840 1-140); experiment: SPR, captured mAb
Protocol: (§1) Non-covalent immobilization of alpha-synuclein antibodies was performed using a target immobilization method of 2000 response units (RU). Antibodies were diluted in 10 mM sodium acetate pH 5.5 (GE Healthcare, BR-1003-52) to a final concentration of 5 μg/mL.
(§2) Binding affinity of alpha-synuclein antibodies to monomeric or fibrillar alpha-synuclein species was performed using a single-cycle kinetics method. The instrument was primed with 1×HBS-P+ buffer (10× stock from GE Healthcare, BR-1003-52 diluted in Milli-Q water). Injections of monomeric alpha-synuclein (aSyn) (Boston Biochem, SP-485), increasing in concentration from 0.62-50 nM prepared from serial 2-fold dilutions, were performed with contact times of 300 sec/injection at a flow rate of 30 μL/min. A dissociation phase of 900 sec followed the final 50 nM injection. Regeneration of the sensor to the goat anti-mouse antibody layer was achieved using 3 regenerations of 10 mM Glycine pH 1.7. […] Regeneration of the sensor to the goat anti-mouse antibody layer was achieved using 3 regenerations of 10 mM Glycine pH 1.7. Results obtained from single-cycle kinetics were evaluated by Biacore T200 evaluation software with 1:1 binding homogenous Langmuir model (with a global Rmax) with Cycle 5 as a blank subtraction. The following kinetic parameters were obtained: on-rate (ka), off-rate (kd), affinity constant (KD, ratio of kd by ka), maximum response (Rmax), and goodness of fit (Chi2).
(§3) Non-covalent capture of the alpha-synuclein antibodies was performed in three separate runs.

alpha-synuclein fibrils = alpha-synuclein fibrils (UniProt P37840 1-140); experiment: SPR, captured mAb
Protocol: as §1, §2, §3

| Binder | Kd [1] [nM] | koff [1] [s⁻¹] | kon [1] [M⁻¹ s⁻¹] | Kd (alpha-synuclein fibrils) [nM] | koff (alpha-synuclein fibrils) [s⁻¹] | kon (alpha-synuclein fibrils) [M⁻¹ s⁻¹] |
| --- | --- | --- | --- | --- | --- | --- |
| B1 | 2.4 | 0.000141 | 60000 | 1.3 | 0.00031 | 242000 |
| B2 | 3.9 | 0.000293 | 75200 | 44.6 | 0.000273 | 6110 |
| B3 | 28.3 | 0.00058 | 20500 | 37.4 | 0.000152 | 4060 |
| B4 | 3.1 | 0.000141 | 45000 | 0.05 | 9.4e-06 | 207000 |
| B5 | 6 | 0.000118 | 19800 | 39 | 0.000166 | 4250 |
| B6 | 1040 | 0.0188 | 18000 | 16.2 | 0.00453 | 280000 |
| B7 | 300 | 0.0569 | 190000 | 13.7 | 0.000129 | 9380 |
| B8 | 2.4 | 0.0014 | 580000 | 22.5 | 0.000563 | 25000 |
| B9 | 1.6 | 0.000482 | 301000 | 17.7 | 0.000156 | 8810 |
